Laboratory results from patent publication US20170145069A1 (Novo Nordisk, published 2017).
*1 amine or outer side, *2 acyl side, *3 side chain or, on linkers, in order; H or OH if unused. Where no end group is shown, it is not given here. Side-chain parts run from the residue outwards. The star is where a group is joined. Decanoyl(10-(4-HOOC-PhO)) = O=C(O)c1ccc(OCCCCCCCCCC(=O)*)cc1; γGlu = O=C(O)[C@H](CCC(=O)[*:2])N[*:1]; AEEA = NCCOCCOCC(=O)O

Legend:
human GLP-1 receptor [1] = target: T1, human GLP-1 receptor (human, UniProt P43220 24-463); test: cell-based or functional assay
human GLP-1 receptor [2] = target: T1, human GLP-1 receptor; test: cell-based or functional assay; remark: listed apart in the source
human GLP-1 receptor [3] = target: T1, human GLP-1 receptor; test: SPA, displacement of 125I-GLP-1(7-36)NH2, BHK membranes, 0.001% HSA
Description: Test compounds, membranes, SPA-particles and [¹²⁵I] ]-GLP-1(7-36)NH₂ were diluted in assay buffer. 50 ul (micro liter) buffer (“low albumin” experiment containing 0.001% HSA) was added to Optiplate, and 25 ul of test compounds were added. 5-10 μg membrane protein/sample was added (50 μl) corresponding to 0.1-0.2 mg protein/ml (to be preferably optimised for each membrane preparation). SPA-particles (Wheatgerm agglutinin SPA beads, Perkin Elmer, #RPNQ0001) were added in an amount of 0.5 mg/well (50 μl). The incubation was started with [¹²⁵I]-GLP-1]-(7-36)NH₂ (final concentration 0.06 nM corresponding to 49.880 DPM, 25 μl). The plates were sealed with PlateSealer and incubated for 120 minutes at 30° C. while shaking. The plates were centrifuged (1500 rpm, 10 min) and counted in Topcounter.
The IC₅₀ value was read from the curve as the concentration which displaces 50% of ¹²⁵I-GLP-1 from the receptor.

Binder | In vitro potency (AlphaScreen cAMP; membranes) EC50 (human GLP-1 receptor [1]) | In vitro potency (CRE-luciferase) low albumin EC50 (human GLP-1 receptor [2]) | IC50 (human GLP-1 receptor [3])
HAEGTFTSDVSSYLEGQAAK([AEEA-AEEA-γGlu-Decanoyl(10-(4-HOOC-PhO))])EFIAWLVRGRK([AEEA-AEEA-γGlu-Decanoyl(10-(4-HOOC-PhO))])E [Comparative compound of Example 4a: Compound of Example 46, Chem. 65, in WO 2011/080103] | 0.101 nM | 0.04 nM | 2.77 nM
HAEGTFTSDVSK([Gly-Ser-Ser-Gly-Ser-Ser-γGlu-Decanoyl(10-(4-HOOC-PhO))])YLEEQAAK([Gly-Ser-Ser-Gly-Ser-Ser-γGlu-Decanoyl(10-(4-HOOC-PhO))])EFIAWLVQGRG | 0.095 nM | 0.0053 nM | 1.63 nM
